Measurements: publication PMC9482650, “Quantitative fragmentomics allow affinity mapping of interactomes” (Nature Communications, 2022)

T1: ARHGEF11, O15085
T1 sequence (O15085 42-136, limits assumed, looked up): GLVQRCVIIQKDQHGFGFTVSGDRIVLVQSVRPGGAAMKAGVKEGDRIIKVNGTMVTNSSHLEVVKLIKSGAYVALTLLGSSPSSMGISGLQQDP

T2: GRIP1_5, Q9Y3R0
T2 sequence (Q9Y3R0 568-668, limits assumed, looked up): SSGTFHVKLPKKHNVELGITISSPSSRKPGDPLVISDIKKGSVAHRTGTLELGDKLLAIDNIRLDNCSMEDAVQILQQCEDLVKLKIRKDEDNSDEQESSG

T3: GRIP1_7, Q9Y3R0
T3 sequence (Q9Y3R0 999-1096, limits assumed, looked up): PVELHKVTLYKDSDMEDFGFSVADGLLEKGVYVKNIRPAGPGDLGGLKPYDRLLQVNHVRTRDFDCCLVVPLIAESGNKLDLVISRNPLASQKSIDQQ

T4: LIN7A, O14910
T4 sequence (O14910 103-200, limits assumed, looked up): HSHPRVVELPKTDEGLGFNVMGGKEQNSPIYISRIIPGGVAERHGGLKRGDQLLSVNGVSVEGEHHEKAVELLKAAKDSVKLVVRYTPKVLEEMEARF

T5: MPP6, Q9NZW5
T5 sequence (Q9NZW5 125-219, limits assumed, looked up): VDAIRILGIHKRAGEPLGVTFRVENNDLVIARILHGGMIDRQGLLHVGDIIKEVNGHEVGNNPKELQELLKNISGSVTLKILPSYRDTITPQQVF

T6: MPP7, Q5T2T1
T6 sequence (Q5T2T1 134-230, limits assumed, looked up): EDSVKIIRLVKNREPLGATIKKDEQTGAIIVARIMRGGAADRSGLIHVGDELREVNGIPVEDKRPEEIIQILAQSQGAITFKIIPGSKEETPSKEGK

T7: PCLO, Q9Y6V0
T7 sequence (Q9Y6V0 4491-4600, limits assumed, looked up): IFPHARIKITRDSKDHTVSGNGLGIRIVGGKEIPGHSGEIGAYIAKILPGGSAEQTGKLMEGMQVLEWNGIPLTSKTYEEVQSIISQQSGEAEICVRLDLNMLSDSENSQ

T8: PDZRN3_1, Q9UPQ7
T8 sequence (Q9UPQ7 244-349, limits assumed, looked up): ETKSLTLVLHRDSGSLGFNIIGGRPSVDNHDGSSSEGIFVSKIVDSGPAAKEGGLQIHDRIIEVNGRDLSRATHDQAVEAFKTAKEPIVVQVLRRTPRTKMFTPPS

T9: PTPN13_1, Q12923
T9 sequence (Q12923 1088-1188, limits assumed, looked up): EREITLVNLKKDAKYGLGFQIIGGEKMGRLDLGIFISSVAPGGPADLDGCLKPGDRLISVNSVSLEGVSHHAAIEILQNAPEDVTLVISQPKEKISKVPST

T10: SYNJ2BP, P57105
T10 sequence (P57105 8-110, limits assumed, looked up): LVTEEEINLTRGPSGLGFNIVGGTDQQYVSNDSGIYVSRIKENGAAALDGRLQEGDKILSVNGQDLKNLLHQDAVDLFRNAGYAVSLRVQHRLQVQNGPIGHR

B1: SLC26A3, P40879 (peptide)
chain: VYEVPVETKF
B2: CLDN10, P78369 (peptide)
chain: SKQFDKNAYV
B3: SLC9A3, P48764 (peptide)
chain: PAALPESTHM

What follows are binders tested against AHNAK1, Q09666 (assay: holdup assay). Conditions: plain residues with an end cap or a label only (N-terminal biotin on a linker: ado-ado).
Parameters: key: below the threshold = too weak to quantify, mostly under pKd 3.1 to 4

Chain of AHNAK1, Q09666 (Q09666 4-100): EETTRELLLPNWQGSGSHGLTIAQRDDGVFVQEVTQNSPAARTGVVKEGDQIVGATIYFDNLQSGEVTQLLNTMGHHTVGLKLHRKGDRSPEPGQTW

Row | pKd | Binder
1 | below the threshold | B1
2 | below the threshold | B2
3 | below the threshold | B3

What follows are binders tested against T1, ARHGEF11, O15085 (assay: holdup assay). Conditions: plain residues with an end cap or a label only (N-terminal biotin on a linker: ado-ado).
Parameters: key: below the threshold = too weak to quantify, mostly under pKd 3.1 to 4

Row | pKd | Binder
4 | 3.62 | B1
5 | below the threshold | B2
6 | below the threshold | B3

The binders below were run against DLG4_2, P78352 (assay: holdup assay). Conditions: plain residues with an end cap or a label only (N-terminal biotin on a linker: ado-ado).
Parameters: key: below the threshold = too weak to quantify, mostly under pKd 3.1 to 4

Chain of DLG4_2, P78352 (P78352 155-259): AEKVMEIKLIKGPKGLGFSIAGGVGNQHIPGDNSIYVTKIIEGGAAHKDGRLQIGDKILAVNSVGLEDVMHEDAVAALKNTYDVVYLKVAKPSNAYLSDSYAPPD

Row | pKd | Binder
7 | 3.66 | B1
8 | 3.52 | B2
9 | below the threshold | B3

What follows are binders tested against FRMPD2_1, Q68DX3 (assay: holdup assay). Conditions: plain residues with an end cap or a label only (N-terminal biotin on a linker: ado-ado).
Parameters: key: below the threshold = too weak to quantify, mostly under pKd 3.1 to 4

Chain of FRMPD2_1, Q68DX3 (Q68DX3 770-861): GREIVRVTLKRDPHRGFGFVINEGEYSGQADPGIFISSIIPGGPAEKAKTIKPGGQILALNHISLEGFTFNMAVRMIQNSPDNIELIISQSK

Row | pKd | Binder
10 | below the threshold | B1
11 | below the threshold | B2
12 | below the threshold | B3

Each binder was assayed against GIPC2, Q8TF65 (assay: holdup assay). Conditions: plain residues with an end cap or a label only (N-terminal biotin on a linker: ado-ado).
Parameters: key: below the threshold = too weak to quantify, mostly under pKd 3.1 to 4

Chain of GIPC2, Q8TF65 (Q8TF65 112-203): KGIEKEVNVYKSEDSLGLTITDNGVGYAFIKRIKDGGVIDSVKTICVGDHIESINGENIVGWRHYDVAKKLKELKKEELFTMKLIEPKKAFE

Row | pKd | Binder
13 | 3.53 | B1
14 | below the threshold | B2
15 | below the threshold | B3

Each binder was assayed against GRASP, Q7Z6J2 (assay: holdup assay). Conditions: plain residues with an end cap or a label only (N-terminal biotin on a linker: ado-ado).
Parameters: key: below the threshold = too weak to quantify, mostly under pKd 3.1 to 4

Chain of GRASP, Q7Z6J2 (Q7Z6J2 96-193): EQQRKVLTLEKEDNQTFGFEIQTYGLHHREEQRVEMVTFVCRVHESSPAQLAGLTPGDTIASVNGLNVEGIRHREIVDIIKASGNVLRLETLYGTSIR

Row | pKd | Binder
16 | 3.81 | B1
17 | 3.56 | B2
18 | below the threshold | B3

These binders were tested against GRID2IP_1, A4D2P6 (assay: holdup assay). Conditions: plain residues with an end cap or a label only (N-terminal biotin on a linker: ado-ado).
Parameters: key: below the threshold = too weak to quantify, mostly under pKd 3.1 to 4

Chain of GRID2IP_1, A4D2P6 (A4D2P6 1-87): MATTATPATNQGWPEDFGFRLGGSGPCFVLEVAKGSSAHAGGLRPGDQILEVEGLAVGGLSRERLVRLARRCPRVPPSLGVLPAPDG

Row | pKd | Binder
19 | below the threshold | B1
20 | below the threshold | B2
21 | below the threshold | B3

The binders below were run against T2, GRIP1_5, Q9Y3R0 (assay: holdup assay). Conditions: plain residues with an end cap or a label only (N-terminal biotin on a linker: ado-ado).
Parameters: key: below the threshold = too weak to quantify, mostly under pKd 3.1 to 4

Row | pKd | Binder
22 | below the threshold | B1
23 | below the threshold | B2
24 | below the threshold | B3

The binders below were run against T3, GRIP1_7, Q9Y3R0 (assay: holdup assay). Conditions: plain residues with an end cap or a label only (N-terminal biotin on a linker: ado-ado).
Parameters: key: below the threshold = too weak to quantify, mostly under pKd 3.1 to 4

Row | pKd | Binder
25 | below the threshold | B1
26 | below the threshold | B2
27 | below the threshold | B3

The binders below were run against GRIP2_3, Q9C0E4 (assay: holdup assay). Conditions: plain residues with an end cap or a label only (N-terminal biotin on a linker: ado-ado).
Parameters: key: below the threshold = too weak to quantify, mostly under pKd 3.1 to 4

Chain of GRIP2_3, Q9C0E4 (Q9C0E4 238-339): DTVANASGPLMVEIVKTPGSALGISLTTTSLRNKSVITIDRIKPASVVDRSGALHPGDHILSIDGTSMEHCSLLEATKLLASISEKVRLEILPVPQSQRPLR

Row | pKd | Binder
28 | below the threshold | B1
29 | below the threshold | B2
30 | below the threshold | B3

The binders below were run against GRIP2_6, Q9C0E4 (assay: holdup assay). Conditions: plain residues with an end cap or a label only (N-terminal biotin on a linker: ado-ado).
Parameters: key: below the threshold = too weak to quantify, mostly under pKd 3.1 to 4

Chain of GRIP2_6, Q9C0E4 (Q9C0E4 648-740): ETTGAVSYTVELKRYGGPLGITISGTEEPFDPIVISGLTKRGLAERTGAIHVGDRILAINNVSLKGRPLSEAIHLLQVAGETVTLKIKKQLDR

Row | pKd | Binder
31 | below the threshold | B1
32 | below the threshold | B2
33 | below the threshold | B3

These binders were tested against HTRA1, Q92743 (assay: holdup assay). Conditions: plain residues with an end cap or a label only (N-terminal biotin on a linker: ado-ado).
Parameters: key: below the threshold = too weak to quantify, mostly under pKd 3.1 to 4

Chain of HTRA1, Q92743 (Q92743 360-477): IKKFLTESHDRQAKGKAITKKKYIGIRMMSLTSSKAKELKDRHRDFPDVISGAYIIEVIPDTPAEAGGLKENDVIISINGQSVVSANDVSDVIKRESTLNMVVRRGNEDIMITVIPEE

Row | pKd | Binder
34 | below the threshold | B1
35 | 3.97 | B2
36 | below the threshold | B3

Each binder was assayed against Inadl_4, Q8NI35 (assay: holdup assay). Conditions: plain residues with an end cap or a label only (N-terminal biotin on a linker: ado-ado).
Parameters: key: below the threshold = too weak to quantify, mostly under pKd 3.1 to 4

Chain of Inadl_4, Q8NI35 (Q8NI35 547-651): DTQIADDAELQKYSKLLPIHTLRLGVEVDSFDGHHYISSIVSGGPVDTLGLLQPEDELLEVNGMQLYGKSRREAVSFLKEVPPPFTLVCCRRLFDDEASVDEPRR

Row | pKd | Binder
37 | below the threshold | B1
38 | below the threshold | B2
39 | below the threshold | B3

Each binder was assayed against T4, LIN7A, O14910 (assay: holdup assay). Conditions: plain residues with an end cap or a label only (N-terminal biotin on a linker: ado-ado).
Parameters: key: below the threshold = too weak to quantify, mostly under pKd 3.1 to 4

Row | pKd | Binder
40 | below the threshold | B1
41 | below the threshold | B2
42 | below the threshold | B3

These binders were tested against MAGI1_1, Q96QZ7 (assay: holdup assay). Conditions: plain residues with an end cap or a label only (N-terminal biotin on a linker: ado-ado).
Parameters: key: below the threshold = too weak to quantify, mostly under pKd 3.1 to 4

Chain of MAGI1_1, Q96QZ7 (Q96QZ7 1-106): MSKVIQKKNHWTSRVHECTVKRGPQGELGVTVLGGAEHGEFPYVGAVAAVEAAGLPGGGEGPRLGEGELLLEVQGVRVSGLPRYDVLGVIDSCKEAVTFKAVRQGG

Row | pKd | Binder
43 | below the threshold | B1
44 | below the threshold | B2
45 | below the threshold | B3

These binders were tested against MAGI1_2, Q96QZ7 (assay: holdup assay). Conditions: plain residues with an end cap or a label only (N-terminal biotin on a linker: ado-ado).
Parameters: key: below the threshold = too weak to quantify, mostly under pKd 3.1 to 4

Chain of MAGI1_2, Q96QZ7 (Q96QZ7 456-580): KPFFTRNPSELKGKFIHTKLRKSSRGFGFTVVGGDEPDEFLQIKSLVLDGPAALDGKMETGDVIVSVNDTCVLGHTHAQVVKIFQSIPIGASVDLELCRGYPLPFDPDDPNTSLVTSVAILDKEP

Row | pKd | Binder
46 | below the threshold | B1
47 | below the threshold | B2
48 | below the threshold | B3

What follows are binders tested against MAGI2_3, Q86UL8 (assay: holdup assay). Conditions: plain residues with an end cap or a label only (N-terminal biotin on a linker: ado-ado).
Parameters: key: below the threshold = too weak to quantify, mostly under pKd 3.1 to 4

Chain of MAGI2_3, Q86UL8 (Q86UL8 600-682): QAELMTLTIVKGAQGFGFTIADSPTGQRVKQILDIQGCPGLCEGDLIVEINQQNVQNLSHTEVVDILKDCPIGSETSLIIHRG

Row | pKd | Binder
49 | below the threshold | B1
50 | below the threshold | B2
51 | below the threshold | B3

Each binder was assayed against MAGI2_5, Q86UL8 (assay: holdup assay). Conditions: plain residues with an end cap or a label only (N-terminal biotin on a linker: ado-ado).
Parameters: key: below the threshold = too weak to quantify, mostly under pKd 3.1 to 4

Chain of MAGI2_5, Q86UL8 (Q86UL8 915-1017): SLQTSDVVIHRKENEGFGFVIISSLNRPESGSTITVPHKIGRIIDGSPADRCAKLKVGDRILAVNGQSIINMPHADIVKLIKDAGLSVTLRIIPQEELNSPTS

Row | pKd | Binder
52 | 3.71 | B1
53 | below the threshold | B2
54 | below the threshold | B3

These binders were tested against MAST2, Q6P0Q8 (assay: holdup assay). Conditions: plain residues with an end cap or a label only (N-terminal biotin on a linker: ado-ado).
Parameters: key: below the threshold = too weak to quantify, mostly under pKd 3.1 to 4

Chain of MAST2, Q6P0Q8 (Q6P0Q8 1099-1202): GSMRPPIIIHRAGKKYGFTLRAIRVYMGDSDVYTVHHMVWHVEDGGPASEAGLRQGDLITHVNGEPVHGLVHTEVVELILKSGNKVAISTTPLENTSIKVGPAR

Row | pKd | Binder
55 | 5.48 | B1
56 | 4.02 | B2
57 | 5.35 | B3

The binders below were run against T5, MPP6, Q9NZW5 (assay: holdup assay). Conditions: plain residues with an end cap or a label only (N-terminal biotin on a linker: ado-ado).
Parameters: key: below the threshold = too weak to quantify, mostly under pKd 3.1 to 4

Row | pKd | Binder
58 | below the threshold | B1
59 | below the threshold | B2
60 | below the threshold | B3

Each binder was assayed against T6, MPP7, Q5T2T1 (assay: holdup assay). Conditions: plain residues with an end cap or a label only (N-terminal biotin on a linker: ado-ado).
Parameters: key: below the threshold = too weak to quantify, mostly under pKd 3.1 to 4

Row | pKd | Binder
61 | below the threshold | B1
62 | below the threshold | B2
63 | below the threshold | B3

These binders were tested against NHERF4_2, Q86UT5 (assay: holdup assay). Conditions: plain residues with an end cap or a label only (N-terminal biotin on a linker: ado-ado).
Parameters: key: below the threshold = too weak to quantify, mostly under pKd 3.1 to 4

Chain of NHERF4_2, Q86UT5 (Q86UT5 220-308): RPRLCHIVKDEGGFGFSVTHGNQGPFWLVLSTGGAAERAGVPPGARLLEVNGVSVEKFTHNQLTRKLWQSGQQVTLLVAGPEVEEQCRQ

Row | pKd | Binder
64 | below the threshold | B1
65 | below the threshold | B2
66 | below the threshold | B3

The binders below were run against T7, PCLO, Q9Y6V0 (assay: holdup assay). Conditions: plain residues with an end cap or a label only (N-terminal biotin on a linker: ado-ado).
Parameters: key: below the threshold = too weak to quantify, mostly under pKd 3.1 to 4

Row | pKd | Binder
67 | below the threshold | B1
68 | below the threshold | B2
69 | below the threshold | B3

The binders below were run against T8, PDZRN3_1, Q9UPQ7 (assay: holdup assay). Conditions: plain residues with an end cap or a label only (N-terminal biotin on a linker: ado-ado).
Parameters: key: below the threshold = too weak to quantify, mostly under pKd 3.1 to 4

Row | pKd | Binder
70 | below the threshold | B1
71 | below the threshold | B2
72 | below the threshold | B3

The binders below were run against T9, PTPN13_1, Q12923 (assay: holdup assay). Conditions: plain residues with an end cap or a label only (N-terminal biotin on a linker: ado-ado).
Parameters: key: below the threshold = too weak to quantify, mostly under pKd 3.1 to 4

Row | pKd | Binder
73 | below the threshold | B1
74 | below the threshold | B2
75 | below the threshold | B3

Each binder was assayed against SCRIB_2, Q14160 (assay: holdup assay). Conditions: plain residues with an end cap or a label only (N-terminal biotin on a linker: ado-ado).
Parameters: key: below the threshold = too weak to quantify, mostly under pKd 3.1 to 4

Chain of SCRIB_2, Q14160 (Q14160 857-960): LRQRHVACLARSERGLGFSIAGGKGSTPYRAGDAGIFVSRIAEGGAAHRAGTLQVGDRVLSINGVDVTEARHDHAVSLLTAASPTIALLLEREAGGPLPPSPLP

Row | pKd | Binder
76 | 3.67 | B1
77 | below the threshold | B2
78 | below the threshold | B3

What follows are binders tested against T10, SYNJ2BP, P57105 (assay: holdup assay). Conditions: plain residues with an end cap or a label only (N-terminal biotin on a linker: ado-ado).
Parameters: key: below the threshold = too weak to quantify, mostly under pKd 3.1 to 4

Row | pKd | Binder
79 | 3.57 | B1
80 | below the threshold | B2
81 | below the threshold | B3
